{"source": "patent US20060211075A1", "about": "“Enzyme sensors including environmentally sensitive or fluorescent labels and uses thereof” (The Albert Einstein College of Medicine of Yeshiva …, priority 2005, published 2006)", "target": "GST-Lck-SH2 (UniProt P06239)", "sequence (P06239 127-224)": "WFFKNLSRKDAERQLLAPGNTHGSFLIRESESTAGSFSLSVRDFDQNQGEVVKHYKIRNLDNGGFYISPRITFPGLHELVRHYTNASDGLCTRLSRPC", "assay": "fluorescence change on Src-catalysed phosphorylation in presence of GST-Lck-SH2 (1.25 µM peptide, 5 µM Lck-SH2, 12 nM Src, 1 mM ATP)", "note": "Starred links: 1 amine or outer side, 2 acyl side, 3 side chain; linkers in the order of their positions; H or OH if unused. Non-standard residues stand in square brackets, D forms with d. pY = N[C@@H](Cc1ccc(OP(=O)(O)O)cc1)C(=O)O; Cysteamide = C(CS[*:3])N[*:1]; Dap = NC[C@H](N)C(=O)O", "data": [{"binder": "Ac-EEEI[pY][Dap](dapoxyl)EIEA-Cysteamide (not fully specified)", "values": [{"measurement": "Fold change in fluorescence intensity", "value": 0.6, "unit": "fold"}]}]}
